Starred links: 1 amine or outer side, 2 acyl side, 3 side chain; linkers in the order of their positions; H or OH if unused. Non-standard residues stand in square brackets, D forms with d. Groups on a side chain read outwards from the residue. Primed or numbered codes have the meaning given here. No end group written: not given here. *: point of attachment. Dodecanoyl(12-OPh(4-COOH)) = O=C(O)c1ccc(OCCCCCCCCCCCC(=O)*)cc1; γGlu = O=C(O)[C@H](CCC(=O)[*:2])N[*:1]; Stearoyl = CCCCCCCCCCCCCCCCCC(=O)*; αMeF = C[C@](N)(Cc1ccccc1)C(=O)O; αMeK = C[C@](N)(CCCCN)C(=O)O; αMeS = C[C@](N)(CO)C(=O)O; PEG2′ = not defined here; Aib = CC(C)(N)C(=O)O
B1: SEQ ID NO 17 (peptide)
peptide: H[Aib]EGS[αMeF]TSDV[αMeS]S[αMeF]LEGEAA[αMeK]E[αMeF]IA[αMeF]VV[αMeK]GG-NH2
modifications: N-terminus assumed
SMILES: CC[C@H](C)[C@H](NC(=O)[C@](C)(Cc1ccccc1)NC(=O)[C@H](CCC(=O)O)NC(=O)[C@](C)(CCCCN)NC(=O)[C@H](C)NC(=O)[C@H](C)NC(=O)[C@H](CCC(=O)O)NC(=O)CNC(=O)[C@H](CCC(=O)O)NC(=O)[C@H](CC(C)C)NC(=O)[C@](C)(Cc1ccccc1)NC(=O)[C@H](CO)NC(=O)[C@](C)(CO)NC(=O)[C@@H](NC(=O)[C@H](CC(=O)O)NC(=O)[C@H](CO)NC(=O)[C@@H](NC(=O)[C@](C)(Cc1ccccc1)NC(=O)[C@H](CO)NC(=O)CNC(=O)[C@H](CCC(=O)O)NC(=O)C(C)(C)NC(=O)[C@@H](N)Cc1c[nH]cn1)[C@@H](C)O)C(C)C)C(=O)N[C@@H](C)C(=O)N[C@@](C)(Cc1ccccc1)C(=O)N[C@H](C(=O)N[C@H](C(=O)N[C@@](C)(CCCCN)C(=O)NCC(=O)NCC(N)=O)C(C)C)C(C)C
B2: SEQ ID NO 24 (peptide)
peptide: H[Aib]EGTFT[Aib]DV[Aib]SYLEGQAAKEFIAWLVKGR-NH2
modifications: N-terminus assumed
SMILES: CC[C@H](C)[C@H](NC(=O)[C@H](Cc1ccccc1)NC(=O)[C@H](CCC(=O)O)NC(=O)[C@H](CCCCN)NC(=O)[C@H](C)NC(=O)[C@H](C)NC(=O)[C@H](CCC(N)=O)NC(=O)CNC(=O)[C@H](CCC(=O)O)NC(=O)[C@H](CC(C)C)NC(=O)[C@H](Cc1ccc(O)cc1)NC(=O)[C@H](CO)NC(=O)C(C)(C)NC(=O)[C@@H](NC(=O)[C@H](CC(=O)O)NC(=O)C(C)(C)NC(=O)[C@@H](NC(=O)[C@H](Cc1ccccc1)NC(=O)[C@@H](NC(=O)CNC(=O)[C@H](CCC(=O)O)NC(=O)C(C)(C)NC(=O)[C@@H](N)Cc1c[nH]cn1)[C@@H](C)O)[C@@H](C)O)C(C)C)C(=O)N[C@@H](C)C(=O)N[C@@H](Cc1c[nH]c2ccccc12)C(=O)N[C@@H](CC(C)C)C(=O)N[C@H](C(=O)N[C@@H](CCCCN)C(=O)NCC(=O)N[C@@H](CCCNC(=N)N)C(N)=O)C(C)C
B3: SEQ ID NO 18 (peptide)
peptide: H[Aib]EGS[αMeF]T[αMeS]DV[αMeS]S[αMeF]LEGEAA[αMeK]E[αMeF]IA[αMeF]VV[αMeK]GG-NH2
modifications: N-terminus assumed
SMILES: CC[C@H](C)[C@H](NC(=O)[C@](C)(Cc1ccccc1)NC(=O)[C@H](CCC(=O)O)NC(=O)[C@](C)(CCCCN)NC(=O)[C@H](C)NC(=O)[C@H](C)NC(=O)[C@H](CCC(=O)O)NC(=O)CNC(=O)[C@H](CCC(=O)O)NC(=O)[C@H](CC(C)C)NC(=O)[C@](C)(Cc1ccccc1)NC(=O)[C@H](CO)NC(=O)[C@](C)(CO)NC(=O)[C@@H](NC(=O)[C@H](CC(=O)O)NC(=O)[C@](C)(CO)NC(=O)[C@@H](NC(=O)[C@](C)(Cc1ccccc1)NC(=O)[C@H](CO)NC(=O)CNC(=O)[C@H](CCC(=O)O)NC(=O)C(C)(C)NC(=O)[C@@H](N)Cc1c[nH]cn1)[C@@H](C)O)C(C)C)C(=O)N[C@@H](C)C(=O)N[C@@](C)(Cc1ccccc1)C(=O)N[C@H](C(=O)N[C@H](C(=O)N[C@@](C)(CCCCN)C(=O)NCC(=O)NCC(N)=O)C(C)C)C(C)C

These binders were tested against GLP-1 receptor (human, UniProt P43220 24-463) (assay: cell-based or functional assay).

Binder	Primary assay EC50 (cAMP), Mean pM GLP-1R [pM]	Primary assay EC50 (cAMP), n1 [nM]	Primary assay EC50 (cAMP), n2 [nM]
HXEGTFTXDVSSYLEGQAAKEFIAWLVKGR (Aib 2; Aib 8; C-terminal amide) [SEQ ID NO 20]	13400	15	12
H[Aib]EGS[αMeF]TSDV[αMeS]S[αMeF]LEGEAAK([PEG2′-PEG2′-γGlu-Stearoyl])E[αMeF]IA[αMeF]VV[αMeK]GG-NH2 [SEQ ID NO 3]	100	0.064	0.14
HXEGTFTSDVXSYLEGQAAKEFIAWLVKGR (Aib 2; Aib 11; C-terminal amide) [SEQ ID NO 22]	118	0.12	0.12
HXEGTFTSDVSSYLEGQAAKEFIAWLVKGRK (Aib 2; K(ε-γE-Palmitoyl) after R30; C-terminal amide) [SEQ ID NO 5]	6.5	0.0075	0.0055
B1	0.2	0.00025	0.00024
B2	5600	3.3	7.9
B3	4940	4.1	5.8

The binders below were run against glucagon receptor (human, UniProt P47871 26-477) (assay: cell-based or functional assay).
Chain of glucagon receptor (P47871 26-477): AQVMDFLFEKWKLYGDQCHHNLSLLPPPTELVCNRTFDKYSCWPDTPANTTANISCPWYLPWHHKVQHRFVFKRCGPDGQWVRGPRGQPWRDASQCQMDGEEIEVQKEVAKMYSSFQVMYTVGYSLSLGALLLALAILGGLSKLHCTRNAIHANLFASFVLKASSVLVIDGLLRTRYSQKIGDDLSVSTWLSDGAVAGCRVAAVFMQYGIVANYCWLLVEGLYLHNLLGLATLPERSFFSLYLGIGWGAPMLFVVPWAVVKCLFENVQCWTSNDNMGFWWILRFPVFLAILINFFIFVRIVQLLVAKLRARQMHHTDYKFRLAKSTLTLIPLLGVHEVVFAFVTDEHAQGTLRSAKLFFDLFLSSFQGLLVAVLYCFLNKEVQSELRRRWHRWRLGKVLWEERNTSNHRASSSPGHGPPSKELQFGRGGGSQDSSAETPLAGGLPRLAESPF

Binder	Primary assay EC50 (cAMP), n1 [nM]	Primary assay EC50 (cAMP), n2 [nM]
HXEGTFTXDVSSYLEGQAAKEFIAWLVKGR (Aib 2; Aib 8; C-terminal amide) [SEQ ID NO 20]	290	290
H[Aib]EGS[αMeF]TSDV[αMeS]S[αMeF]LEGEAAK([PEG2′-PEG2′-γGlu-Stearoyl])E[αMeF]IA[αMeF]VV[αMeK]GG-NH2 [SEQ ID NO 3]	25	25
HXEGTFTSDVSSYLEGQAAKEFIAWLVKGR (Aib 2; α-MeSer 8; C-terminal amide) [SEQ ID NO 19]	130	130
HXEGTFTSDVSSYLEGQAAKEFIAWLVKGR (Aib 2; α-MeSer 11; C-terminal amide) [SEQ ID NO 21]	340	340
HXEGTFTSDVXSYLEGQAAKEFIAWLVKGR (Aib 2; Aib 11; C-terminal amide) [SEQ ID NO 22]	390	240
HXEGTFTSDVSSYLEGQAAKEFIAWLVKGRK (Aib 2; K(ε-γE-Palmitoyl) after R30; C-terminal amide) [SEQ ID NO 5]	81	81
HXEGTFTSDVSSYLEGQAAKEFIAWLVKGR (Aib 2; α-MeSer 8; α-MeSer 11; C-terminal amide) [SEQ ID NO 23]	540	540
B1	31	31
B2	740	740
B3	100	100

These binders were tested against T1, glucose-dependent insulinotropic peptide (gastric inhibitory polypeptide) receptor (human, UniProt P48546 22-466) (assay: cell-based or functional assay).
T1 sequence (looked up): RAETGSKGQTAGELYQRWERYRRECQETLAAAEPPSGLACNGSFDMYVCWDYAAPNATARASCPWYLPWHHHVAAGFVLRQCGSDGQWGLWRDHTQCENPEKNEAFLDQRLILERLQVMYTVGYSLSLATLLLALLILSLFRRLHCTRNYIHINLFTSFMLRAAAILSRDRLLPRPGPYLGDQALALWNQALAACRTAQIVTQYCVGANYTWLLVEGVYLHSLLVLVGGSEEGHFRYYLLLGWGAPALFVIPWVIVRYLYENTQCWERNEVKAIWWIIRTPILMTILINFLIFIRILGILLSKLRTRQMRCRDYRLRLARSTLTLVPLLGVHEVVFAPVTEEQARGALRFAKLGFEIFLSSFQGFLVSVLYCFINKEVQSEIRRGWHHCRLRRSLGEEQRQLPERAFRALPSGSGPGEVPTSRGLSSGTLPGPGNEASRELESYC

Binder	Primary assay EC50 (cAMP), n1 [nM]	Primary assay EC50 (cAMP), n2 [nM]
HXEGTFTXDVSSYLEGQAAKEFIAWLVKGR (Aib 2; Aib 8; C-terminal amide) [SEQ ID NO 20]	290	290
H[Aib]EGS[αMeF]TSDV[αMeS]S[αMeF]LEGEAAK([PEG2′-PEG2′-γGlu-Stearoyl])E[αMeF]IA[αMeF]VV[αMeK]GG-NH2 [SEQ ID NO 3]	25	25
HXEGTFTSDVSSYLEGQAAKEFIAWLVKGR (Aib 2; α-MeSer 8; C-terminal amide) [SEQ ID NO 19]	130	130
HXEGTFTSDVSSYLEGQAAKEFIAWLVKGR (Aib 2; α-MeSer 11; C-terminal amide) [SEQ ID NO 21]	340	340
HXEGTFTSDVXSYLEGQAAKEFIAWLVKGR (Aib 2; Aib 11; C-terminal amide) [SEQ ID NO 22]	480	480
HXEGTFTSDVSSYLEGQAAKEFIAWLVKGRK (Aib 2; K(ε-γE-Palmitoyl) after R30; C-terminal amide) [SEQ ID NO 5]	81	81
HXEGTFTSDVSSYLEGQAAKEFIAWLVKGR (Aib 2; α-MeSer 8; α-MeSer 11; C-terminal amide) [SEQ ID NO 23]	540	540
B1	31	31
B2	740	740
B3	100	100

What follows are binders tested against GLP-1 receptor (GLP-1R) (human, UniProt P43220 24-463) (assay: cell-based or functional assay).

Binder	cAMP Mean pM GLP-1R [pM]	cAMP Primary assay EC50 GLP-1R n1 [nM]	cAMP Primary assay EC50 GLP-1R n2 [nM]
H[Aib]EGS[αMeF]TSDV[αMeS]S[αMeF]LEGEAAK([PEG2′-Dodecanoyl(12-OPh(4-COOH))])E[αMeF]IA[αMeF]VV[αMeK]GG-NH2 [SEQ ID NO 143]	8.6	0.012	0.0052
H[Aib]EGS[αMeF]TSDV[αMeS]S[αMeF]LEGEAAK([PEG2′-PEG2′-Dodecanoyl(12-OPh(4-COOH))])E[αMeF]IA[αMeF]VV[αMeK]GG-NH2 [SEQ ID NO 144]	12.6	0.016	0.0096
H[Aib]EGS[αMeF]TSDV[αMeS]S[αMeF]LEGEAAK([PEG2′-PEG2′-PEG2′-Dodecanoyl(12-OPh(4-COOH))])E[αMeF]IA[αMeF]VV[αMeK]GG-NH2 [SEQ ID NO 145]	21	0.027	0.015

What follows are binders tested against glucagon receptor (GCGR) (human, UniProt P47871 26-477) (assay: cell-based or functional assay).
Chain of glucagon receptor (GCGR) (P47871 26-477): as the sequence (P47871 26-477) above

Binder	cAMP Primary assay EC50 Gluc-R [nM]	cAMP Primary assay EC50 Gluc-R (2nd) [nM]
H[Aib]EGS[αMeF]TSDV[αMeS]S[αMeF]LEGEAAK([PEG2′-Dodecanoyl(12-OPh(4-COOH))])E[αMeF]IA[αMeF]VV[αMeK]GG-NH2 [SEQ ID NO 143]	27	27
H[Aib]EGS[αMeF]TSDV[αMeS]S[αMeF]LEGEAAK([PEG2′-PEG2′-Dodecanoyl(12-OPh(4-COOH))])E[αMeF]IA[αMeF]VV[αMeK]GG-NH2 [SEQ ID NO 144]	26	26
H[Aib]EGS[αMeF]TSDV[αMeS]S[αMeF]LEGEAAK([PEG2′-PEG2′-PEG2′-Dodecanoyl(12-OPh(4-COOH))])E[αMeF]IA[αMeF]VV[αMeK]GG-NH2 [SEQ ID NO 145]	25	25

Each binder was assayed against T2, glucose-dependent insulinotropic peptide (gastric inhibitory polypeptide) receptor (GIPR) (human, UniProt P48546 22-466) (assay: cell-based or functional assay).
T2 sequence (looked up): T1 sequence (looked up)

Binder	cAMP Primary assay EC50 GIP-R [nM]	cAMP Primary assay EC50 GIP-R (2nd) [nM]
H[Aib]EGS[αMeF]TSDV[αMeS]S[αMeF]LEGEAAK([PEG2′-Dodecanoyl(12-OPh(4-COOH))])E[αMeF]IA[αMeF]VV[αMeK]GG-NH2 [SEQ ID NO 143]	27	27
H[Aib]EGS[αMeF]TSDV[αMeS]S[αMeF]LEGEAAK([PEG2′-PEG2′-Dodecanoyl(12-OPh(4-COOH))])E[αMeF]IA[αMeF]VV[αMeK]GG-NH2 [SEQ ID NO 144]	26	26
H[Aib]EGS[αMeF]TSDV[αMeS]S[αMeF]LEGEAAK([PEG2′-PEG2′-PEG2′-Dodecanoyl(12-OPh(4-COOH))])E[αMeF]IA[αMeF]VV[αMeK]GG-NH2 [SEQ ID NO 145]	25	25

From patent US20200079833A1 (AstraZeneca / MedImmune, published 2020)
